Eleven molecules from patent US20200024358A1 (published 2020) can be followed below.

In assay [1] the target is T1, recombinant human PD-L1 His-tag protein (expressed after transient transfection in HEK293-6E) (human, UniProt Q9NZQ7 19-238, limits assumed).
T1 construct: not shown: His-tag
Put plainly: dual-binding ELISA: BCMA Fc coated, then PD-L1 His, anti-His detection. On the technique in general: In an ELISA, binding on a coated surface is turned into a signal by an enzyme label.

In assay [2] the target is T2, recombinant Human BCMA Fc Chimera (produced in-house via transient expression in HEK293-6E cells) (human, UniProt Q02223 1-54).
T2 construct: not shown: Fc part of the chimera
T2 sequence (looked up): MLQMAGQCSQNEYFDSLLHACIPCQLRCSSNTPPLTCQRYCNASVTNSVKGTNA
Briefly: dual-binding ELISA: BCMA Fc coated, then CD3 epsilon His or PD-L1 His, anti-His detection.

Assay [3] deals with T3, recombinant human CD3 epsilon His-tag protein (Novoprotein, Cat. No. C578) (human, UniProt P07766 23-126).
T3 construct: Bought protein; not shown: His-tag
T3 sequence (P07766 23-126): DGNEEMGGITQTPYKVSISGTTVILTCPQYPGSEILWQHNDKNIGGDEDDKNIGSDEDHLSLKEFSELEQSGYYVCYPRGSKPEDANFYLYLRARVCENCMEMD
Briefly: dual-binding ELISA: BCMA Fc coated, then CD3 epsilon His, anti-His detection.

Assay [4] deals with T4, extracellular domain of human PD-L1 (Example 8) (human, UniProt Q9NZQ7 19-238).
T4 construct: extracellular domain; also called PD-L1 antigen; immobilized PD-L1
T4 sequence (Q9NZQ7 19-238): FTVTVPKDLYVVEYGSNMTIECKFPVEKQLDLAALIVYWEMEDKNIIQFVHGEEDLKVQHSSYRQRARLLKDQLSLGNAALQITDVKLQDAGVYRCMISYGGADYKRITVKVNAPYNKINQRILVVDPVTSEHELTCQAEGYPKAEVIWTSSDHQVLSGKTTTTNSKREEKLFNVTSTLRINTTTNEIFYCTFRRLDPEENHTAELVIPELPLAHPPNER
Put plainly: ELISA on coated extracellular domain of human PD-L1, serial dilutions.
Procedure: Serial dilutions of the antibodies to final concentrations ranging from 0.5 ng/mL to 50 μg/ml were tested by ELISA for binding to the extracellular domain of human PD-L1 coated on a 96 well plate.

Residue numbers refer to the chain shown, from its start.

T1 sequence (Q9NZQ7 19-238 limits assumed): as the sequence (Q9NZQ7 19-238) above

B1: CDR1-049 (other)
heavy: EVQLVESGGGSVQPGGSLRLSCTVSGIDLSSYTMGWVRQAPGKGLEWVGIISSGGRTYYASWAKGRFTISRDTSKNTVYLQMNSLRAEDTATYYCARGRYTGYPYYFALWGQGTTVTVSSASTKGPSVFPLAPSSKSTSGGTAALGCLVKDYFPEPVTVSWNSGALTSGVHTFPAVLQSSGLYSLSSVVTVPSSSLGTQTYICNVNHKPSNTKVDKRVEPKSCGGGGSAVVTQEPSLTVSPGGTVTLTCGSSTGAVTTSNYANWVQQKPGKSPRGLIGGTNKRAPGVPARFSGSLLGGKAALTISGAQPEDEADYYCALWYSNHWVFGGGTKLTVLGGGGGSGGGGSGGGGSGGGGSEVQLVESGGGSVQPGGSLRLSCAASGFTFSTYAMNWVRQAPGKGLEWVGRIRSKANNYATYYADSVKGRFTISRDDSKNTLYLQMNSLRAEDTATYYCVRHGNFGDSYVSWFAYWGQGTTVTVSS
light: EIVMTQSPSTLSASVGDRVIITCQASEDIYSLLAWYQQKPGKAPKLLIYDASDLASGVPSRFSGSGSGAEFTLTISSLQPDDSATYYCQGNYGSSSSSSYGAVFGQGTKLTVLGTVAAPSVFIFPPSDEQLKSGTASVVCLLNNFYPREAKVQWKVDNALQSGNSQESVTEQDSKDSTYSLSSTLTLSKADYEKHKVYACEVTHQGLSSPVTKSFNRGECGGGGSDIVLTQSPASLAMSLGKRATISCRASESVSVIGAHLIHWYQQKPGQPPKLLIYLASNLETGVPARFSGSGSGTDFTLTIDPVEEDDVAIYSCLQSRIFPRTFGGGTKLEIKGGGGSGGGGSGGGGSGGGGSQIQLVQSGPELKKPGETVKISCKASGYTFTDYSINWVKRAPGKGLKWMGWINTETREPAYAYDFRGRFAFSLETSASTAYLQINNLKYEDTATYFCALDYSYAMDYWGQGTSVTVSS
notes: Trispecific Fab-scFv: anti-PD-L1 Fab, anti-CD3 scFv on the Fd, anti-BCMA scFv on the light chain
B1: the binding result in assay [1], in assay [2] and in assay [3] was “binds” in each case.

B2: CDR1-048 (other)
heavy: EVQLVESGGGSVQPGGSLRLSCAASGFTFSTYAMNWVRQAPGKGLEWVGRIRSKANNYATYYADSVKGRFTISRDDSKNTLYLQMNSLRAEDTATYYCVRHGNFGDSYVSWFAYWGQGTTVTVSSASTKGPSVFPLAPSSKSTSGGTAALGCLVKDYFPEPVTVSWNSGALTSGVHTFPAVLQSSGLYSLSSVVTVPSSSLGTQTYICNVNHKPSNTKVDKRVEPKSCGGGGSDIVLTQSPASLAMSLGKRATISCRASESVSVIGAHLIHWYQQKPGQPPKLLIYLASNLETGVPARFSGSGSGTDFTLTIDPVEEDDVAIYSCLQSRIFPRTFGGGTKLEIKGGGGSGGGGSGGGGSGGGGSQIQLVQSGPELKKPGETVKISCKASGYTFTDYSINWVKRAPGKGLKWMGWINTETREPAYAYDFRGRFAFSLETSASTAYLQINNLKYEDTATYFCALDYSYAMDYWGQGTSVTVSS
light: AVVTQEPSLTVSPGGTVTLTCGSSTGAVTTSNYANWVQQKPGKSPRGLIGGTNKRAPGVPARFSGSLLGGKAALTISGAQPEDEADYYCALWYSNHWVFGGGTKLTVLGTVAAPSVFIFPPSDEQLKSGTASVVCLLNNFYPREAKVQWKVDNALQSGNSQESVTEQDSKDSTYSLSSTLTLSKADYEKHKVYACEVTHQGLSSPVTKSFNRGECGGGGSEIVMTQSPSTLSASVGDRVIITCQASEDIYSLLAWYQQKPGKAPKLLIYDASDLASGVPSRFSGSGSGAEFTLTISSLQPDDSATYYCQGNYGSSSSSSYGAVFGQGTKLTVLGGGGGSGGGGSGGGGSGGGGSEVQLVESGGGSVQPGGSLRLSCTVSGIDLSSYTMGWVRQAPGKGLEWVGIISSGGRTYYASWAKGRFTISRDTSKNTVYLQMNSLRAEDTATYYCARGRYTGYPYYFALWGQGTTVTVSS
notes: Trispecific Fab-scFv: anti-CD3 Fab, anti-BCMA scFv on the Fd, anti-PD-L1 scFv on the light chain
Consider B2, for which the binding result in assay [1], in assay [2] and in assay [3] was “binds” throughout.

B3: CDR1-047 (other)
heavy: QIQLVQSGPELKKPGETVKISCKASGYTFTDYSINWVKRAPGKGLKWMGWINTETREPAYAYDFRGRFAFSLETSASTAYLQINNLKYEDTATYFCALDYSYAMDYWGQGTSVTVSSASTKGPSVFPLAPSSKSTSGGTAALGCLVKDYFPEPVTVSWNSGALTSGVHTFPAVLQSSGLYSLSSVVTVPSSSLGTQTYICNVNHKPSNTKVDKRVEPKSCGGGGSAVVTQEPSLTVSPGGTVTLTCGSSTGAVTTSNYANWVQQKPGKSPRGLIGGTNKRAPGVPARFSGSLLGGKAALTISGAQPEDEADYYCALWYSNHWVFGGGTKLTVLGGGGGSGGGGSGGGGSGGGGSEVQLVESGGGSVQPGGSLRLSCAASGFTFSTYAMNWVRQAPGKGLEWVGRIRSKANNYATYYADSVKGRFTISRDDSKNTLYLQMNSLRAEDTATYYCVRHGNFGDSYVSWFAYWGQGTTVTVSS
light: DIVLTQSPASLAMSLGKRATISCRASESVSVIGAHLIHWYQQKPGQPPKLLIYLASNLETGVPARFSGSGSGTDFTLTIDPVEEDDVAIYSCLQSRIFPRTFGGGTKLEIKRTVAAPSVFIFPPSDEQLKSGTASVVCLLNNFYPREAKVQWKVDNALQSGNSQESVTEQDSKDSTYSLSSTLTLSKADYEKHKVYACEVTHQGLSSPVTKSFNRGECGGGGSEIVMTQSPSTLSASVGDRVIITCQASEDIYSLLAWYQQKPGKAPKLLIYDASDLASGVPSRFSGSGSGAEFTLTISSLQPDDSATYYCQGNYGSSSSSSYGAVFGQGTKLTVLGGGGGSGGGGSGGGGSGGGGSEVQLVESGGGSVQPGGSLRLSCTVSGIDLSSYTMGWVRQAPGKGLEWVGIISSGGRTYYASWAKGRFTISRDTSKNTVYLQMNSLRAEDTATYYCARGRYTGYPYYFALWGQGTTVTVSS
notes: Trispecific Fab-scFv: anti-BCMA Fab, anti-CD3 scFv on the Fd, anti-PD-L1 scFv on the light chain
As for B3, the binding result in assay [1], in assay [2] and in assay [3] was “binds” each time.

B4: CDR1-010 (other)
heavy: QIQLVQSGPELKKPGETVKISCKASGYTFTDYSINWVKRAPGKGLKWMGWINTETREPAYAYDFRGRFAFSLETSASTAYLQINNLKYEDTATYFCALDYSYAMDYWGQGTSVTVSSASTKGPSVFPLAPSSKSTSGGTAALGCLVKDYFPEPVTVSWNSGALTSGVHTFPAVLQSSGLYSLSSVVTVPSSSLGTQTYICNVNHKPSNTKVDKRVEPKSCGGGGSEIVMTQSPSTLSASVGDRVIITCQASEAIYSLLAWYQQKPGKAPKLLIYDASDLASGVPSRFSGSGSGAEFTLTISSLQPDDSATYYCQGNYGSSSSSSYGAVFGQGTKLTVLGGGGGSGGGGSGGGGSGGGGSEVQLVESGGGSVQPGGSLRLSCTVSGIDLSSYTMGWVRQAPGKGLEWVGIISSGGRTYYASWAKGRFTISRDTSKNTVYLQMNSLRAEDTATYYCARGRYTGYPYYFALWGQGTTVTVSS
light: DIVLTQSPASLAMSLGKRATISCRASESVSVIGAHLIHWYQQKPGQPPKLLIYLASNLETGVPARFSGSGSGTDFTLTIDPVEEDDVAIYSCLQSRIFPRTFGGGTKLEIKRTVAAPSVFIFPPSDEQLKSGTASVVCLLNNFYPREAKVQWKVDNALQSGNSQESVTEQDSKDSTYSLSSTLTLSKADYEKHKVYACEVTHQGLSSPVTKSFNRGECGGGGSAVVTQEPSLTVSPGGTVTLTCGSSTGAVTTSNYANWVQQKPGKSPRGLIGGTNKRAPGVPARFSGSLLGGKAALTISGAQPEDEADYYCALWYSNHWVFGGGTKLTVLGGGGGSGGGGSGGGGSGGGGSEVQLVESGGGSVQPGGSLRLSCAASGFTFSTYAMNWVRQAPGKGLEWVGRIRSKANNYATYYADSVKGRFTISRDDSKNTLYLQMNSLRAEDTATYYCVRHGNFGDSYVSWFAYWGQGTTVTVSS
Turning to B4, in assay [4], the binding result was “binds”.

B5: CDR1-055 (other)
heavy: QIQLVQSGPELKKPGETVKISCKASGYTFTDYSINWVKRAPGKGLKWMGWINTETREPAYAYDFRGRFAFSLETSASTAYLQINNLKYEDTATYFCALDYSYAMDYWGQGTSVTVSSASTKGPSVFPLAPSSKSTSGGTAALGCLVKDYFPEPVTVSWNSGALTSGVHTFPAVLQSSGLYSLSSVVTVPSSSLGTQTYICNVNHKPSNTKVDKRVEPKSCGGGGSQVQLVESGGGLVQPGGSLRLSCAASGKMSSRRCMAWFRQAPGKGLERVAKLLTTSGSTYLADSVKGRFTISRDNSKNTVYLQMNSLRAEDTAVYYCAADSFEDPTCTLVTSSGAFQYWGQGTLVTVSS
light: B4 light
notes: Trispecific: anti-BCMA Fab, anti-PD-L1 sdAb on the Fd, anti-CD3 scFv on the light chain
For the molecule B5, the binding result in assay [1], in assay [2] and in assay [3] was “binds” in each case.

B6: CDR1-018 (other)
heavy: B4 heavy with A253D, Y459A
light: B4 light
For B6, the binding result in assay [4] is “binds”.

B7: CDR1-015 (other)
heavy: B4 heavy with A253D, G413A
light: B4 light
For the molecule B7, the binding result in assay [4] is “binds”.

B8: CDR1-014 (other)
heavy: B4 heavy with A253D, T392A
light: B4 light
Regarding B8, in assay [4], the binding result is given as “binds”.

B9: CDR1-013 (other)
heavy: B4 heavy with A253D, N316A
light: B4 light
On to B9, for which the binding result in assay [4] is “binds”.

B10: CDR1-016 (other)
heavy: B4 heavy with A253D, R415A
light: B4 light
Turning to B10, in assay [4], the binding result is listed as “binds”.

B11: CDR1-012 (other)
heavy: B4 heavy with A253D, D275A
light: B4 light
Turning to B11, the binding result in assay [4] is on record as “binds”.
